Data from the supplement of paper PMC10567573.

B1: SMG5 (parent)
chain: TNPDLIIVCAQSSQSLWNRLSVLL
B2: TFE3 (parent)
chain: ELPNIKREISETEAKALLKERQKK

Variants of: B1
Assay: protein stability index of a GFP-peptide fusion (GPS, HEK-293T) (PSI 1-6); higher = more stable
Conditions: c terminus: a fixed tail appended
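Also: lentivirally expressed fusions sorted by FACS into six bins by GFP to DsRed ratio, PSI derived from sequencing read proportions per bin multiplied by bin number.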

Protein stability index: each site, then its substitutions
L16: R 2.94; S 2.53; T 3.24; M 3.23; P 3.37; D 3.33; Q 2.55; C 2.91; H 3.7; E 2.42; W 1.93; Y 2.81; V 1.51; F 3.11; A 2.1; K 3.19; I 2.02; N 2.81
S21: F 3.03; T 3.07; L 2.07; G 3.14; Y 3.25; M 1.58; R 2; W 2.75; K 2.19; V 2.88; I 3.08; P 2.6; N 3.04; H 2.52; C 2.21; A 3.16; E 3.57; Q 2.87
L23: C 3.62; S 2.68; D 1.73; G 3.55; H 3.59; P 3.47; A 1.84; R 2.83; E 2.75; N 3.27; K 1.99; W 2.85; I 2.27; V 2.8; F 2.33
Q14: D 3.38; N 2.81; K 3.23; T 3.58; M 2.22; V 3.03; Y 3.2; L 1.6; R 2.73; G 2.23; A 3.98; S 2.68; P 2.09; E 1.6
L24: Y 1.85; A 2.73; F 2.86; W 2.26; M 3.19; P 1.38; V 3.05; R 1.93; D 2.8; Q 1.92; S 1.38; G 2.84; T 2.64; N 2.45; H 2.54; E 3.27
W17: M 3.06; V 2.79; L 3.96; D 1.77; Q 1.9; P 2.82; A 4.21; K 2.05; Y 2.88; S 3.57; E 3; F 3.58; C 4.36; T 2.58; I 2.47
S12: R 3.06; Y 4.01; H 3.49; M 2.99; N 1.99; L 3.9; C 3.33; P 1.33; D 2.12; E 2.22; F 3.37; G 2.1; K 1.89; I 3.02
V22: S 2.36; I 4.58; C 3.03; N 1.58; Y 1.91; E 1.91; H 1.84; F 2.52; A 2; G 1.81; T 2.99; L 3.21; M 2.98; K 2.17; W 1.24; D 2.03; Q 1.65; P 2.62; R 2.23
R19: C 2.09; M 2.1; V 1.86; D 3.35; L 1.57; Q 2.95; G 3.61; F 1.84; Y 1.41; A 1.74; P 3.09; H 2.54; E 3.19; N 5.11; T 3.21; W 2.23; S 2.06; K 2.5; I 1.75
L20: I 2.41; N 3.27; C 2.88; T 2.02; M 2.24; W 3.72; H 1.7; V 1.7; Q 2.08; E 3.06; Y 2.11; G 2.45; S 2.19; K 2.77; F 1.81; D 1.83; A 2.15; P 2.92
Q11: M 2.81; V 3.29; N 2; W 1.54; G 2.09; T 3.57; L 3.05; P 3.62; E 1.32; D 3.08; K 2.89; Y 4.08; F 1.67; C 3.76; R 2.19
S13: M 2; R 1.36; L 2.97; Y 3.59; Q 1.83; H 1.53; D 1.59; P 3.21; F 1.49; I 1.41; C 2.21; N 2.7; W 1.55; G 2.42; E 1.57; V 1.88; T 3.23; A 1.16; K 2.48
S15: R 1.25; L 2.45; P 3.51; T 1.44; N 3.11; I 4.01; G 2.9; A 2.62; K 3.11; M 3.28; C 3.21; D 2.19; Y 2.49; F 4.58; W 1.76; H 2.18; Q 2.12; E 2.58
N18: Y 3.31; C 2.27; D 2.97; Q 2.4; A 3.11; I 2.43; H 2.56; L 5.57; W 1.92; T 2.56; G 2.69; E 1.56; K 2; V 1.91; P 3.09; R 1.49

Variants of: B2
Assay: as above
Conditions: c terminus: a fixed tail appended

Protein stability index: each site, then its substitutions
I5: S 4.98; W 3.93; D 5.33; C 3.53; G 3.46; M 2.23; Q 4.38; P 4.91; H 4.61; N 4.22; E 5.37; Y 4.3; V 3.94; A 4.81; F 4.05; L 3.34; R 4.4; T 4.7; K 4.58
E1: T 3.6; D 2.65; F 2.21; H 2.66; N 2.75; M 2.39; I 3.59; C 3.12; Y 2.82; L 2.29; V 3.57; P 4.81; Q 2.99; R 3.51; A 3.19; S 2.87; K 3.13; G 4.65; W 3.01
L2: E 5.33; V 1.95; Q 3.88; T 4.71; Y 4.18; P 5.74; I 2.19; G 5.23; C 3.5; W 3.96; K 5.08; M 2.84; F 4.29; R 3.94; S 5.39; N 5.12; A 4.75; H 4.51; D 5.49
P3: E 3.17; L 2.02; V 2.32; N 4.13; W 2.43; G 3.5; Q 2.98; C 2.43; S 3.44; M 1.93; K 3.82; D 2.89; T 3.57; Y 3.04; I 1.34; R 3.75; F 2.84; H 2.57; A 2.6
K6: A 2.95; F 2.79; D 4.36; E 4.11; C 2.33
N4: F 3.14; E 3.9; A 2.88; Q 2.02; K 2.78; H 2.84; S 3.23; L 3.34; M 2.83; Y 3.29; D 2.75; P 3.76; C 2.32; T 3.33; I 3.85; V 3.86; W 3.35; G 3.62; R 2.34
